In patent US6133428:

Key:
[1] = target: Gab1 of insulin-stimulated 3T3-L1 fibroblasts (Mus musculus (Mouse)) (UniProt Q9QYY0); assay: PI-3-kinase activity assay on immunoprecipitates from insulin stimulated 3T3-L1 fibroblasts
[2] = target: Gab1 of insulin-stimulated 3T3-L1 fibroblasts (Mus musculus (Mouse)) (UniProt Q9QYY0); assay: PI-3-kinase activity assay on anti-Gab1 immunoprecipitates from 3T3-L1 fibroblasts
[3] = target: endogenous Gab1 of EGF stimulated A431 cells (Homo sapiens (Human)); assay: PI-3-kinase activity assay on anti-Gab1 immunoprecipitates from A431 cells
[4] = target: endogenous Gab1 of insulin stimulated A431 cells (Homo sapiens (Human)); assay: as above
[5] = target: endogenous Gab1 of EGF stimulated A431 cells (Homo sapiens (Human)); assay: PI-3-kinase activity assay on immunoprecipitates from EGF stimulated A431 cells

PI-3-kinase of 3T3-L1 fibroblasts (enzyme)
Gab1 associated PI-3-kinase activity as percent of that associated with anti-phosphotyrosine [1]: 71%
fold increase of PI-3-kinase activity in Gab1 immunoprecipitates [2]: 2.4 fold

PI-3-kinase of A431 cells (enzyme)
fold increase of PI-3-kinase activity in anti-Gab1 immunoprecipitates against unstimulated cells [3]: 2.3 fold
fold increase of PI-3-kinase activity in Gab1 immunoprecipitates [4]: 1.7 fold
anti-Gab1 associated PI-3-kinase activity as percent of that in anti-phosphotyrosine immunoprecipitates [5]: 42%
